Each block holds one binder with its values, some of them ahead of it.
What was measured:
Assay in all cases: peptide ELISA
[1] = target: T1, FX activation peptide 12-mer … (human)
T1 sequence (peptide, C-terminally conjugated to biotin): TENPFDLLDFNQ

[2] = target: T2, FX activation peptide 12-mer … (human); remark: listed apart in the source
T2 sequence (peptide, C-terminally conjugated to biotin): VAQATSSSGEAP

[3] = target: T3, FX activation peptide 12-mer … (human); remark: listed apart in the source
T3 sequence (peptide, C-terminally conjugated to biotin): SITWKPYDAADL

[4] = target: T4, FX activation peptide 12-mer … (human); remark: listed apart in the source
T4 sequence (peptide, C-terminally conjugated to biotin): NPFDLLDFNQTQ

[5] = target: T5, FX activation peptide 12-mer … (human); remark: listed apart in the source
T5 sequence (peptide, C-terminally conjugated to biotin): PFDLLDFNQTQP

[6] = target: T6, FX activation peptide 12-mer … (human); remark: listed apart in the source
T6 sequence (peptide, C-terminally conjugated to biotin): FDLLDFNQTQPE

[7] = target: T7, FX activation peptide 12-mer … (human); remark: listed apart in the source
T7 sequence (peptide, C-terminally conjugated to biotin): SSGEAPDSITWK

[8] = target: T8, FX activation peptide 12-mer … (human); remark: listed apart in the source
T8 sequence (peptide, C-terminally conjugated to biotin): ATSSSGEAPDSI

[9] = target: T9, FX activation peptide 12-mer … (human); remark: listed apart in the source
T9 sequence (peptide, C-terminally conjugated to biotin): FNQTQPERGDNN

[10] = target: T10, FX activation peptide 12-mer … (human); remark: listed apart in the source
T10 sequence (peptide, C-terminally conjugated to biotin): NQTQPERGDNNL

[11] = target: T11, FX activation peptide 12-mer … (human); remark: listed apart in the source
T11 sequence (peptide, C-terminally conjugated to biotin): DAADLDPTENPF

[12] = target: T12, FX activation peptide 12-mer … (human); remark: listed apart in the source
T12 sequence (peptide, C-terminally conjugated to biotin): DLDPTENPFDLL

[13] = target: T13, FX activation peptide 12-mer … (human); remark: listed apart in the source
T13 sequence (peptide, C-terminally conjugated to biotin): PDSITWKPYDAA

[14] = target: T14, FX activation peptide 12-mer … (human); remark: listed apart in the source
T14 sequence (peptide, C-terminally conjugated to biotin): PTENPFDLLDFN

[15] = target: T15, FX activation peptide 12-mer … (human); remark: listed apart in the source
T15 sequence (peptide, C-terminally conjugated to biotin): DLLDFNQTQPER

[16] = target: T16, FX activation peptide 12-mer … (human); remark: listed apart in the source
T16 sequence (peptide, C-terminally conjugated to biotin): APDSITWKPYDA

[17] = target: T17, FX activation peptide 12-mer … (human); remark: listed apart in the source
T17 sequence (peptide, C-terminally conjugated to biotin): GEAPDSITWKPY

[18] = target: T18, FX activation peptide 12-mer … (human); remark: listed apart in the source
T18 sequence (peptide, C-terminally conjugated to biotin): TSSSGEAPDSIT

[19] = target: T19, FX activation peptide 12-mer … (human); remark: listed apart in the source
T19 sequence (peptide, C-terminally conjugated to biotin): DPTENPFDLLDF

[20] = target: T20, FX activation peptide 12-mer … (human); remark: listed apart in the source
T20 sequence (peptide, C-terminally conjugated to biotin): LLDFNQTQPERG

[21] = target: T21, FX activation peptide 12-mer … (human); remark: listed apart in the source
T21 sequence (peptide, C-terminally conjugated to biotin): ENPFDLLDFNQT

[22] = target: T22, FX activation peptide 12-mer … (human); remark: listed apart in the source
T22 sequence (peptide, C-terminally conjugated to biotin): EAPDSITWKPYD

[23] = target: T23, FX activation peptide 12-mer … (human); remark: listed apart in the source
T23 sequence (peptide, C-terminally conjugated to biotin): DFNQTQPERGDN

[24] = target: T24, FX activation peptide 12-mer … (human); remark: listed apart in the source
T24 sequence (peptide, C-terminally conjugated to biotin): PYDAADLDPTEN

[25] = target: T25, FX activation peptide 12-mer … (human); remark: listed apart in the source
T25 sequence (peptide, C-terminally conjugated to biotin): TWKPYDAADLDP

[26] = target: T26, FX activation peptide 12-mer … (human); remark: listed apart in the source
T26 sequence (peptide, C-terminally conjugated to biotin): LDPTENPFDLLD

[27] = target: T27, FX activation peptide 12-mer … (human); remark: listed apart in the source
T27 sequence (peptide, C-terminally conjugated to biotin): SGEAPDSITWKP

[28] = target: T28, FX activation peptide 12-mer … (human); remark: listed apart in the source
T28 sequence (peptide, C-terminally conjugated to biotin): SVAQATSSSGEA

[29] = target: T29, FX activation peptide 12-mer … (human); remark: listed apart in the source
T29 sequence (peptide, C-terminally conjugated to biotin): ITWKPYDAADLD

[30] = target: T30, FX activation peptide 12-mer … (human); remark: listed apart in the source
T30 sequence (peptide, C-terminally conjugated to biotin): DSITWKPYDAAD

[31] = target: T31, FX activation peptide 12-mer … (human); remark: listed apart in the source
T31 sequence (peptide, C-terminally conjugated to biotin): YDAADLDPTENP

B2: Nb 701D07 (VHH, not shown: small tags and cut ends)
VHH: EVQLVESGGGVVQPGGSLRLSCAASGGTLSRYAMGWFRQAPGKEREFVAAITRRGSRTYYADSVKGRFTISRDNSKNTVYLQMNSLRPEDTALYYCAADLAPGDYALDYWGQGTLVTVSS
ELISA signal relative to background [1]: 1.44
ELISA signal relative to background [4]: 0.96
ELISA signal relative to background [5]: 1.13
ELISA signal relative to background [14]: 1.29
ELISA signal relative to background [19]: 1.39
ELISA signal relative to background [21]: 1.27

B3: Nb 701C06 (VHH, not shown: small tags and cut ends)
VHH: EVQLVESGGGVVQPGGSLRLSCAASGRTFSTYAMGWFRQAPGKEREFVAAISRRGGRTYYADSVKGRFTISRDNSKNTVYLQMNSLRPEDTALYYCAADATARDGLLDYWGQGTLVTVSS
ELISA signal relative to background [1]: 1.74
ELISA signal relative to background [4]: 1.29
ELISA signal relative to background [5]: 1.5
ELISA signal relative to background [6]: 1.41
ELISA signal relative to background [14]: 1.61
ELISA signal relative to background [19]: 1.51
ELISA signal relative to background [21]: 1.56

B4: Nb 702C12 (VHH, not shown: small tags and cut ends)
VHH: EVQLVESGGGVVQPGGSLRLSCVASGRTFSRYAMGWFRQAPGKEREFVAAISRRGGSTNYADSVKGRFTISRDNSKNTVYLQMNSLRPEDTALYYCAADYSSGDGYLDYWGQGTLVTVSS
ELISA signal relative to background [20]: 1.88

Second part, the binder after the results:

ELISA signal relative to background [1]: 2.54
ELISA signal relative to background [2]: 2.13
ELISA signal relative to background [3]: 2.28
ELISA signal relative to background [4]: 2.28
ELISA signal relative to background [5]: 2.5
ELISA signal relative to background [6]: 3.01
ELISA signal relative to background [7]: 2.01
ELISA signal relative to background [8]: 2.27
ELISA signal relative to background [9]: 2.16
ELISA signal relative to background [10]: 2.02
ELISA signal relative to background [11]: 2.3
ELISA signal relative to background [12]: 2.48
ELISA signal relative to background [13]: 2.4
ELISA signal relative to background [14]: 2.35
ELISA signal relative to background [15]: 2.45
ELISA signal relative to background [16]: 2.29
ELISA signal relative to background [17]: 2.26
ELISA signal relative to background [18]: 2.2
ELISA signal relative to background [19]: 2.27
ELISA signal relative to background [20]: 2.3
ELISA signal relative to background [21]: 2.88
ELISA signal relative to background [22]: 2.35
ELISA signal relative to background [23]: 2.25
ELISA signal relative to background [24]: 2.05
ELISA signal relative to background [25]: 2.26
ELISA signal relative to background [26]: 2.29
ELISA signal relative to background [27]: 2.15
ELISA signal relative to background [28]: 2.25
ELISA signal relative to background [29]: 2.08
ELISA signal relative to background [30]: 2.18
ELISA signal relative to background [31]: 2.21
B1: Nb 721E08 (VHH, not shown: small tags and cut ends)
VHH: EVQLVESGGGVVQPGGSLRLSCAASGRTFSTYSMGWFRQAPGKEREFVAAITRRGSRTYYADSVKGRFTISRDNSKNTVYLQMNSLRPEDTALYYCAADRRPADSYLDYWGQGTLVTVSS

ELISA signal relative to background [19]: 1.95
ELISA signal relative to background [26]: 1.58
B5: Nb 729C08 (VHH, not shown: small tags and cut ends)
VHH: EVQLVESGGGVVQPGGSLRLSCAASGFTFSDYAMSWVRQAPGKGLEWVSGITGGGRTYYADSVKGRFTISRDNSKNTLYLQMNSLRPEDTALYYCAAAILTRTRRTYDYWGQGTLVTVSS

ELISA signal relative to background [5]: 1.41
ELISA signal relative to background [6]: 1.58
ELISA signal relative to background [26]: 1.91
B6: Nb 729A04 (VHH, not shown: small tags and cut ends)
VHH: EVQLVESGGGVVQPGGSLRLSCAASGFTFSDYAMSWVRQAPGKGLEWVSGITSGGGRTYYADSVKGRFTISRDNSKNTLYLQMNSLRPEDTALYYCAAVRTLGLRGSYDYWGQGTLVTVSS

ELISA signal relative to background [14]: 1.62
ELISA signal relative to background [19]: 1.68
B7: Nb 730C03 (VHH, not shown: small tags and cut ends)
VHH: EVQLVESGGGVVQPGGSLRLSCVASGFTFSDYAMSWVRQAPGKGLEWVSGITSGSGRTYYADSVKGRFTISRDNSKNTVYLQMNSLRPEDTALYYCAAAILRGYRKTYDYWGQGTLVTVSS

Source: patent US20210054097A1
